To fix the notation:
B1: CPEB3 Ribozyme (parent)
chain: GGGGGCCACAGCAGAAGCGUUCACGUCGCGGCCCCUGUCAGAUUCUGGUGAAUCUGCGAAUUCUGCUGU

The series covers variants of B1. Briefly: self-cleavage, relative activity (ratio to wild type); higher = more cleavage; co-transcriptional.
Turning to GGGGGCCACAGCAGAAGCGUUCUCGUCGCGGCCCCUGUCAGAUUAUGGUGAAUCUGCGAAUUCUGCUGU [A23U C45A], the self-cleavage was 0.997.

In the case of GGGGGCCACAGCAGAAGCGUUCUCGUCGCGGCCCCUGUCAGAUUGUGGUGAAUCUGCGAAUUCUGCUGU [A23U C45G], the self-cleavage turned out to be 1.

GGGGGCCACAGCAGAAGCGUUCAAGUCGCGGCCCCUGUCAGAUUCUGGUGAUUCUGCGAAUUCUGCUGU [C24A A52U]: the self-cleavage came out at 0.632.

For GGGGGCCACAGCAGAAGCGUUCAAGUCGCGGCCCCUGUCAGAUUCUGGUGACUCUGCGAAUUCUGCUGU [C24A A52C], the self-cleavage turned out to be 0.634.

With GGGGGCCACAGCAGAAGCGUUCUCGUCGCGGCCCCUGUCAGAUUCUGGUGAAUCUGCGCAUUCUGCUGU [A23U A59C], the self-cleavage turned out to be 0.888.

As to GGGGGCCACAGCAGAAGCGUUCUCGUCGCGGCCCCUGUCAGAUUCUGGUGAAUCUGCGUAUUCUGCUGU [A23U A59U], the self-cleavage was determined as 0.969.

As to GGGGGCCACAGCAGAAGCGUUCUCGUCGCGGCCCCUGUCAGAUUCUGGUGAAUCUGCGAAUUCUUCUGU [A23U G65U], the self-cleavage came to 0.811.

In the case of GGGGGCCACAGCAGAAGCGUUCUCGUCGCGGCCCCUGUCAGAUUCUGGUGAAUCGGCGAAUUCUGCUGU [A23U U55G], the self-cleavage was found to be 0.908.

GGGGGCCACAGCAGAAGCGUUCUCGUCGCGGCCCCUGUCAGAUUCUGGUGAAUCAGCGAAUUCUGCUGU [A23U U55A]: the self-cleavage is 0.877.

Turning to GGGGGCCACAGCAGAAGCGUUCGCGUCGCGGCCCCUGUCAGAUUCUGGUGAAGCUGCGAAUUCUGCUGU [A23G U53G], the self-cleavage was 0.85.

Turning to GGGGGCCACAGCAGAAGCGUUCAAGUUGCGGCCCCUGUCAGAUUCUGGUGAAUCUGCGAAUUCUGCUGU [C24A C27U], the self-cleavage was found to be 0.168.

Take GGGGGCCACAGCAGAAGCGUUCGCGUCGCGGCCCCUGUCAGAUUCUGGUGAAUCUGCGAAUUCGGCUGU [A23G U64G]: the self-cleavage turned out to be 0.738.

GGGGGCCACAGCAGAAGCGUUCGCGUCGCGGCCCCUGUCAGAUUCUGGUGAAUCUGCGAAUUCCGCUGU [A23G U64C]: the self-cleavage turned out to be 0.777.

With GGGGGCCACAGCAGAAGCGUUCAAGUCGCGGCCCCUGUCAGAUUCUGGUGAAUCUGCGAAUUGUGCUGU [C24A C63G], the self-cleavage stood at 0.392.

Take GGGGGCCACAGCAGAAGCGUUCGCGUCGCGGCCCCUGUCAGAUUCUGGUGAAUCUACGAAUUCUGCUGU [A23G G56A]: the self-cleavage was 0.953.

GGGGGCCACAGCAGAAGCGUUCUCGUCGCGGCCCAUGUCAGAUUCUGGUGAAUCUGCGAAUUCUGCUGU [A23U C35A]: the self-cleavage was 0.395.

Regarding GGGGGCCACAGCAGAAGCGUUCGCGUCGCGGCCCCUGUCAGAUUCUGGUGAAUCUGCUAAUUCUGCUGU [A23G G58U], the self-cleavage was found to be 0.972.

Turning to GGGGGCCACAGCAGAAGCGUUCGCGUCGCGGCCCCUGUCAGAUUCUGGUGAAUCUGCAAAUUCUGCUGU [A23G G58A], the self-cleavage amounted to 0.991.

On to GGGGGCCACAGCAGAAGCGUUCUCGUCGCGGCUCCUGUCAGAUUCUGGUGAAUCUGCGAAUUCUGCUGU [A23U C33U], for which the self-cleavage was 0.998.

GGGGGCCACAGCAGAAGCGUUCUCGUCGCGGCCCCUGUCAGCUUCUGGUGAAUCUGCGAAUUCUGCUGU [A23U A42C]: the self-cleavage stood at 0.992.

Turning to GGGGGCCACAGCAGAAGCGUUCUCGUCGCGGCCCCUGUCAGUUUCUGGUGAAUCUGCGAAUUCUGCUGU [A23U A42U], the self-cleavage stood at 1.

Consider GGGGGCCACAGCAGAAGCGUUCUCGUCGCGGCCCCUGUCAGGUUCUGGUGAAUCUGCGAAUUCUGCUGU [A23U A42G], for which the self-cleavage was determined as 0.978.

With GGGGGCCACAGCAGAAGCGUUCAAGUCGCGACCCCUGUCAGAUUCUGGUGAAUCUGCGAAUUCUGCUGU [C24A G31A], the self-cleavage worked out at 0.372.

As to GGGGGCCACAGCAGAAGCGUUCUCGUCGCGGCCCCUGUCAGAUUCUGGUGAAUCUGCGAAUUCUGAUGU [A23U C66A], the self-cleavage stood at 0.886.

For GGGGGCCACAGCAGAAGCGUUCAAGUCGCGGCCCCUGUCAGAUUCUGGUGAAUGUGCGAAUUCUGCUGU [C24A C54G], the self-cleavage was 0.549.

With GGGGGCCACAGCAGAAGCGUUCAAGUCGCGGCCCCUGUCAGAUUCUGGUGAAUAUGCGAAUUCUGCUGU [C24A C54A], the self-cleavage is 0.516.

Regarding GGGGGCCACAGCAGAAGCGUUCUCGUCGCGGCCCCUGUCAGAUUCUGGUGAAUCUGCGAAUGCUGCUGU [A23U U62G], the self-cleavage worked out at 0.894.

For the variant GGGGGCCACAGCAGAAGCGUUCUCGUCGCGGCCCCUGUCAGAUUCUGGUGAAUCUGCGAAUCCUGCUGU [A23U U62C], the self-cleavage is 0.885.

With GGGGGCCACAGCAGAAGCGUUCAAGUCGCGGCCCCUGUCAGAUUCUGGUGAAUCUGCCAAUUCUGCUGU [C24A G58C], the self-cleavage was 0.509.

As to GGGGGCCACAGCAGAAGCGUUCUCGUCGCGGCCCCUGUCAGAUUCUGGUGAAUCUGCGAAUUCUGCUGG [A23U U69G], the self-cleavage turned out to be 1.04.

GGGGGCCACAGCAGAAGCGUUCGCGUCGCGGCCCCUGUCAGAUUCAGGUGAAUCUGCGAAUUCUGCUGU [A23G U46A]: the self-cleavage turned out to be 1.01.

As to GGGGGCCACAGCAGAAGCGUUCGCGUCGCGGCCCCUGUCAGAUUCGGGUGAAUCUGCGAAUUCUGCUGU [A23G U46G], the self-cleavage was found to be 1.01.

Turning to GGGGGCCACAGCAGAAGCGUUCUCGUCGCGGCCCCUGUCAGAUUCUGGUGAAUCUGCAAAUUCUGCUGU [A23U G58A], the self-cleavage was 1.02.

In the case of GGGGGCCACAGCAGAAGCGUUCUCGUCGCGGCCCCUGUCAGAUUCUGGUGAAUCUGCUAAUUCUGCUGU [A23U G58U], the self-cleavage stood at 1.01.

Turning to GGGGGCCACAGCAGAAGCGUUCUCGUCGCGGCCCCUGUCAGAUUCUGGUGAAUCUGCCAAUUCUGCUGU [A23U G58C], the self-cleavage was determined as 1.02.

GGGGGCCACAGCAGAAGCGUUCGCGUCGCGGCCCCUGUCAGAUUCUGGUAAAUCUGCGAAUUCUGCUGU [A23G G50A]: the self-cleavage turned out to be 0.971.

Regarding GGGGGCCACAGCAGAAGCGUUCGCGUCGCGGCCCCUGUCAGAUUCUGGUUAAUCUGCGAAUUCUGCUGU [A23G G50U], the self-cleavage came out at 0.971.

Turning to GGGGGCCACAGCAGAAGCGUUCGCGUCGCGGCCCCUGUCAGAUUCUGGUGAAUCUGCGAAGUCUGCUGU [A23G U61G], the self-cleavage came to 0.734.

Consider GGGGGCCACAGCAGAAGCGUUCGCGUCGCGGCCCCUGUCAGAUUCUGGUGAAUCUGCGAAAUCUGCUGU [A23G U61A], for which the self-cleavage came out at 0.867.

The values above are taken from the RNAGym collection of RNA variant scans (doi:10.7554/elife.80360).
